{
  "source": "patent US20250320312A1",
  "about": "(OXITOPE PHARMA B V, published 2025)",
  "test_in_all_cases": "scFv ELISA",
  "key": {"BSA": {"molecular_target": "BSA (UniProt P02769)", "sequence (P02769 25-607 limits assumed)": "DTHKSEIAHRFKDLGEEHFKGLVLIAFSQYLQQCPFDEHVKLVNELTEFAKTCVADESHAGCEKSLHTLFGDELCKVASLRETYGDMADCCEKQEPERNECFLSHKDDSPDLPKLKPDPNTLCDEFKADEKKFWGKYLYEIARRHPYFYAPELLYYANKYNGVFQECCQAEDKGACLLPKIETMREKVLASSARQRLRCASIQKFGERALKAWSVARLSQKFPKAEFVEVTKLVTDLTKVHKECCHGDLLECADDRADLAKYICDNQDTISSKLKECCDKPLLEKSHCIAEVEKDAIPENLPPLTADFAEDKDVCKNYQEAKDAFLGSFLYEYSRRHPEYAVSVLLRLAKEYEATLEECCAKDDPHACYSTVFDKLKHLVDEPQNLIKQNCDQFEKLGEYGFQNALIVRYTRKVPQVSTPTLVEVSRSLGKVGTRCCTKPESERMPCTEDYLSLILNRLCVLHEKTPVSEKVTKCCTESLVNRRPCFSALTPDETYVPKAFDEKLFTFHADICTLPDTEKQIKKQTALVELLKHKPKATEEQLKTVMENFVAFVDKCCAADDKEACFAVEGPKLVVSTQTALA"}, "[1]": {"molecular_target": "Peptide 1: Biotin-…-[Tyr(PC)]-acid"}, "[2]": {"molecular_target": "Peptide 5: Biotin-…-[Tyr(PC)]-acid"}, "[3]": {"molecular_target": "T1, Peptide 4: Biotin-AGGGGSGGGGSGGGGSAAA-Tyr-acid (N-terminal biotin; C-terminal acid; no PC)", "T1 construct": "control peptide without PC", "T1 peptide": "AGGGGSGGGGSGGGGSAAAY", "method_in_brief": "(§1)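 Bound scFv was read as OD450 after HRP–anti-V5 detection, TMB development and HCl stop. PPE with BSA was incubated 1 h at RT on BSA-blocked wells coated overnight at 4° C. with peptide, or on streptavidin wells loaded 1 h with biotinylated PC-peptides at 1 μg/mL.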"}, "[4]": {"molecular_target": "T2, Peptide 8: Biotin-AEAAAKEAAAKEAAAKEAAAKAAA-Tyr-acid (N-terminal biotin; C-terminal acid; no PC)", "T2 construct": "control peptide without PC", "T2 peptide": "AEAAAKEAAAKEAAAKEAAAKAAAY", "method_in_brief": "as §1"}},
  "data": [
    {"binder": "PcOxP_DB04_C08 (scFv, V domains shown, scFv in periplasmic extract) VH: EVQLLESGGGLVQPGGSLRLSCAASGETFSDFYMEWVRQAPGKGLEWVAASRNKANDYTTEYADSVKGRFTISRDNSKNTLYLQMNSLRAEDTAVYYCARDYYGSSYWYFDVWGQGTLVTVSS VL: DIQMTQSPSSLSASVGDRVTITCTASESLYSSKHGVHYLAWYQQKPGKAPKLLIYGASNRYIGVPSRFSGSGSGTDFTLTISSLQPEDFATYYCAQFYQYPLTFGGGTKVEIK", "values": [
      {"measurement": "OD450", "setting": "BSA", "result": 0.08, "unit": "OD450"},
      {"measurement": "OD450", "setting": "[1]", "result": 0.69, "unit": "OD450"},
      {"measurement": "OD450", "setting": "[2]", "result": 1.07, "unit": "OD450"},
      {"measurement": "OD450", "setting": "[3]", "result": 0.05, "unit": "OD450"},
      {"measurement": "OD450", "setting": "[4]", "result": 0.06, "unit": "OD450"}
    ]},
    {"binder": "PcOxP_DB04_D08 (scFv, V domains shown, scFv in periplasmic extract) VH: EVQLLESGGGLVQPGGSLRLSCAASGFTFSDHYMEWVRQAPGKGLEWVAASRNKANDYTTEYADSVKGRFTISRDNSKNTLYLQMNSLRAEDTAVYYCARDYYGSSYWYFDVWGQGTLVTVSS VL: DIQMTQSPSSLSASVGDRVTITCTASESLYSSKHKVHYLAWYQQKPGKAPKLLIYGASNRAIGVPSRFSGSGSGTDFTLTISSLQPEDFATYYCAQFYTYPLTFGGGTKVEIK", "values": [
      {"measurement": "OD450", "setting": "BSA", "result": 0.12, "unit": "OD450"},
      {"measurement": "OD450", "setting": "[1]", "result": 1.6, "unit": "OD450"},
      {"measurement": "OD450", "setting": "[2]", "result": 1.96, "unit": "OD450"},
      {"measurement": "OD450", "setting": "[3]", "result": 0.07, "unit": "OD450"},
      {"measurement": "OD450", "setting": "[4]", "result": 0.07, "unit": "OD450"}
    ]},
    {"binder": "PcOxP_DB04_F11 (scFv, V domains shown, scFv in periplasmic extract) VH: EVQLLESGGGLVQPGGSLRLSCAASGFTGSDFYMEWVRQAPGKGLEWVAASRGKGNSYTTEYADSVKGRFTISRDNSKNTLYLQMNSLRAEDTAVYYCARDYYGSSTWYFDVWGQGTLVTVSS VL: DIQMTQSPSSLSASVGDRVTITCTASESLYSSKHKVHYLAWYQQKPGKAPKLLIYGASNRYAGVPSRFSGSGSGTDFTLTISSLQPEDFATYYCGQFYSYPLTFGGGTKVEIK", "values": [
      {"measurement": "OD450", "setting": "BSA", "result": 0.1, "unit": "OD450"},
      {"measurement": "OD450", "setting": "[1]", "result": 0.58, "unit": "OD450"},
      {"measurement": "OD450", "setting": "[2]", "result": 1.27, "unit": "OD450"},
      {"measurement": "OD450", "setting": "[3]", "result": 0.07, "unit": "OD450"},
      {"measurement": "OD450", "setting": "[4]", "result": 0.06, "unit": "OD450"}
    ]},
    {"binder": "PcOxP_DB04_G06 (scFv, V domains shown, scFv in periplasmic extract) VH: EVQLLESGGGLVQPGGSLRLSCAASGFTFSDFYMEWVRQAPGKGLEWVAASRWKANDYTTEYADSVKGRFTISRDNSKNTLYLQMNSLRAEDTAVYYCARDYYESSYWYFDVWGQGTLVTVSS VL: DIQMTQSPSSLSASVGDRVTITCTASQSLYSSKHKVHYLAWYQQKPGKAPKLLIYGASNRYIGVPSRFSGSGSGTDFTLTISSLQPEDFATYYCAQFYVYPLTFGGGTKVEIK", "values": [
      {"measurement": "OD450", "setting": "BSA", "result": 0.11, "unit": "OD450"},
      {"measurement": "OD450", "setting": "[1]", "result": 1.03, "unit": "OD450"},
      {"measurement": "OD450", "setting": "[2]", "result": 1.12, "unit": "OD450"},
      {"measurement": "OD450", "setting": "[3]", "result": 0.07, "unit": "OD450"},
      {"measurement": "OD450", "setting": "[4]", "result": 0.07, "unit": "OD450"}
    ]},
    {"binder": "PcOxP_DB04_H07 (scFv, V domains shown, scFv in periplasmic extract) VH: EVQLLESGGGLVQPGGSLRLSCAASGFTFEDFYMEWVRQAPGKGLEWVAASRNKANDYTTEYADSVKGRFTISRDNSKNTLYLQMNSLRAEDTAVYYCARDYYGSSYWYFDVWGQGTLVTVSS VL: DIQMTQSPSSLSASVGDRVTITCTASESLYSSKHKVHYLAWYQQKPGKAPKLLIYGASNRVIGVPSRFSGSGSGTDFTLTISSLQPEDFATYYCAQFYSYPLTFGGGTKVEIK", "values": [
      {"measurement": "OD450", "setting": "BSA", "result": 0.09, "unit": "OD450"},
      {"measurement": "OD450", "setting": "[1]", "result": 0.58, "unit": "OD450"},
      {"measurement": "OD450", "setting": "[2]", "result": 1.02, "unit": "OD450"},
      {"measurement": "OD450", "setting": "[3]", "result": 0.06, "unit": "OD450"},
      {"measurement": "OD450", "setting": "[4]", "result": 0.05, "unit": "OD450"}
    ]},
    {"binder": "PcOxP_DB04_F06 (scFv, V domains shown, scFv in periplasmic extract) VH: EVQLLESGGGLVQPGGSLRLSCAASGDTFSDFYMEWVRQAPGKGLEWVAASRNKANDYTTEYADSVKGRFTISRDNSKNTLYLQMNSLRAEDTAVYYCARDYYGSSYWYFDVWGQGTLVTVSS VL: DIQMTQSPSSLSASVGDRVTITCTASESLSSSKHKVHYLAWYQQKPGKAPKLLIYGASNRYIGVPSRFSGSGSGTDFTLTISSLQPEDFATYYCAQFYSYPLTFGGGTKVEIK", "values": [
      {"measurement": "OD450", "setting": "BSA", "result": 0.1, "unit": "OD450"},
      {"measurement": "OD450", "setting": "[1]", "result": 0.75, "unit": "OD450"},
      {"measurement": "OD450", "setting": "[2]", "result": 1.3, "unit": "OD450"},
      {"measurement": "OD450", "setting": "[3]", "result": 0.06, "unit": "OD450"},
      {"measurement": "OD450", "setting": "[4]", "result": 0.06, "unit": "OD450"}
    ]},
    {"binder": "PcOxP_DB04_H08 (scFv, V domains shown, scFv in periplasmic extract) VH: EVQLLESGGGLVQPGGSLRLSCAASGFTFSDGYMEWVRQAPGKGLEWVAASRNKANDYTTEYADSVKGRFTISRDNSKNTLYLQMNSLRAEDTAVYYCARDYYGSSYWYFDVWGQGTLVTVSS VL: DIQMTQSPSSLSASVGDRVTITCTASESLYSSKHKVHYLAWYQQKPGKAPKLLIYGASNLYSGVPSRFSGSGSGTDFTLTISSLQPEDFATYYCAQFYSYPLTFGGGTKVEIK", "values": [
      {"measurement": "OD450", "setting": "BSA", "result": 0.09, "unit": "OD450"},
      {"measurement": "OD450", "setting": "[1]", "result": 0.85, "unit": "OD450"},
      {"measurement": "OD450", "setting": "[2]", "result": 1.42, "unit": "OD450"},
      {"measurement": "OD450", "setting": "[3]", "result": 0.07, "unit": "OD450"},
      {"measurement": "OD450", "setting": "[4]", "result": 0.06, "unit": "OD450"}
    ]}
  ]
}
